Measurements taken from patent US20250277059A1, “ANTIBODY USED TO TREAT CORONAVIRUS INFECTION” (priority 2022, published 2025).
Read-outs that look alike come from different tables or passages of the source.

B1: 1864_10 antibody (antibody, V domains shown)
VH: QVQLQQSGPALVKPGASLKISCEASGYTFTYYSINWVKQRPGQGLEWIGWIFPGSGSTYYNEKFKGKATLTIDKSSSTAYMLLSSLTSEDSAVYFCARSDYGSAYGYFDVWGTGTTVTVSS
VL: DIVLTQSPASLAVSLGQRATISCRASKSVSTSGYSYMHWYQQKPGQPPKLLIYLASNLESGVPARFSGSGSGTDFTLNIHPVEEEDAATYYCQHSRDLPLTFGAGTKLELK
B2: 2114_16 antibody (antibody, V domains shown)
VH: EVQLQQSGPELVKPGASVKISCKASGYTFTDYYMNWVKRRHGKSLEWIGNINPNNGGTSYNQKFKGKATLTVDKSSSTAYMELRSLTSEDSVVYYCAREGDLFPFAYWGQGTLVTVSA
VL: QAVVTQESALTTSPGETVTLTCRSSIGTVTTSNFANWVQEKPDHLFTGLIGASNNRAPGVPARFSGSLIGDKAALTITGAQTEDEAIYFCALWFSNHWVFGGGTKLTVL
notes: also called 2114 antibody
B3: 1831_15 antibody (antibody, V domains shown)
VH: QVQLQQPGAELVKPGASVKLSCKASGYSFTTYWMHWVRQRPGQGLEWIGIIHPNSGTTNYNEKFKSKASLTVDKSSSTAYMQLSSLTSEDSAVYYCARLLWDYFDYWGQGTTLTVSS
VL: DIVMSQSPSSLAVSAGEKVTMSCKSSQSLLNSRTRKNFLAWYQQKPGQSPKLLIYWASTRESGVPDRFTGSGSGTDFTLTISSVQAEDLAVYYCKQSYNLYTFGGGTKLEIK
B4: 2020_12: mouse anti-human TMPRSS2 monoclonal antibody, IgG2c κ; VH SEQ ID NO: 25, VL SEQ ID NO: 26 (antibody, V domains shown)
VH: QVQLQQPGAELAKPGASVKLSCKASGYTFTSYWMHWVKQRPGQGLEWIGLIPPNSGSSNYNEKFKSKATLTVDKSSRTAYMQLSSLTSEDSAVYYCARWDYGSSYGYFDVWGTGTTVTVSS
VL: DIVLTQSPASLAVSLGQRATISCRASESVSTSGYSYMHWYQQKPGQPPKLLIYLASNLESGVPVRFSGSGSGTDFTLNIHPVEEEDAATYYCQHSRELPPTFGAGTKLELK
modifications: mouse IgG2c kappa constant regions; 2020_12 VH; 2020_12 VL
B5: 1864_10: mouse anti-human TMPRSS2 monoclonal antibody, IgG2b κ; VH SEQ ID NO: 17, VL SEQ ID NO: 18 (antibody, V domains shown)
VH: QVQLQQSGPALVKPGASLKISCEASGYTFTYYSINWVKQRPGQGLEWIGWIFPGSGSTYYNEKFKGKATLTIDKSSSTAYMLLSSLTSEDSAVYFCARSDYGSAYGYFDVWGTGTTVTVSS
VL: DIVLTQSPASLAVSLGQRATISCRASKSVSTSGYSYMHWYQQKPGQPPKLLIYLASNLESGVPARFSGSGSGTDFTLNIHPVEEEDAATYYCQHSRDLPLTFGAGTKLELK
modifications: mouse IgG2b kappa constant regions; 1864_10 VH; 1864_10 VL

What was measured:
[1] = molecular target: T1, Mouse TMPRSS2 expressed on cells (mouse, UniProt Q9JIQ8 1-490); assay: flow cytometry, Daudi transfectant
[2] = molecular target: Human TMPRSS2 expressed on cells (human) (UniProt O15393); assay: flow cytometry, Daudi transfectant
[3] = molecular target: Cynomolgus monkey TMPRSS2 expressed on cells (cynomolgus monkey); assay: flow cytometry, Daudi transfectant
[4] = molecular target: Human TMPRSS2 expressed on cells (human) (UniProt O15393); assay: flow cytometry, COS7 transfectant; Q1 23.3
TMPRSS-13 = molecular target: T2, TMPRSS-13 (human, UniProt Q9BYE2); assay: ELISA, Strep-tagged protein on streptavidin plate
T2 sequence (single chain, looked up): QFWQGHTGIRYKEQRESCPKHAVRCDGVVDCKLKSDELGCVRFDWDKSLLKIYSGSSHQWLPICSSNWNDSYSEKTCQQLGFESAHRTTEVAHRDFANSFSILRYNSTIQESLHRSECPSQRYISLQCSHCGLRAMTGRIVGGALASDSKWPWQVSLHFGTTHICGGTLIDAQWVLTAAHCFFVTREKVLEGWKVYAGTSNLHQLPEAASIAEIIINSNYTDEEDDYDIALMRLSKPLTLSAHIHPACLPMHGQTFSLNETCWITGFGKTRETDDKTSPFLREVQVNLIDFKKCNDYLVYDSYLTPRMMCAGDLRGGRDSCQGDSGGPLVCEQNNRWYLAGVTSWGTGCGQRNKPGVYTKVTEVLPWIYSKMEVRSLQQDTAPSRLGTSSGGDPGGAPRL

TMPRSS-11E = molecular target: T3, TMPRSS-11E (human, UniProt Q9UL52); assay: ELISA, Strep-tagged protein on streptavidin plate
T3 sequence (single chain, looked up): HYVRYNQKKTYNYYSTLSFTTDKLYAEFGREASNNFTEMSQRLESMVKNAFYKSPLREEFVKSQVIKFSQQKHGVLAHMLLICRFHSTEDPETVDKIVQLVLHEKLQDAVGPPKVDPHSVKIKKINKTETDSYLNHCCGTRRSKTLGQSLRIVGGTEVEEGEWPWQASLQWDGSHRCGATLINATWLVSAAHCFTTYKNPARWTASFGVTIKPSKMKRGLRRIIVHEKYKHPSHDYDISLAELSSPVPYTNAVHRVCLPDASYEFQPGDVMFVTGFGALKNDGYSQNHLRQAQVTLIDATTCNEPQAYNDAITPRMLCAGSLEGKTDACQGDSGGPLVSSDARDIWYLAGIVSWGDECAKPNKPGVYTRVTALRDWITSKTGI

TMPRSS-11D = molecular target: T4, TMPRSS-11D (human, UniProt O60235); assay: ELISA, Strep-tagged protein on streptavidin plate
T4 sequence (single chain, looked up): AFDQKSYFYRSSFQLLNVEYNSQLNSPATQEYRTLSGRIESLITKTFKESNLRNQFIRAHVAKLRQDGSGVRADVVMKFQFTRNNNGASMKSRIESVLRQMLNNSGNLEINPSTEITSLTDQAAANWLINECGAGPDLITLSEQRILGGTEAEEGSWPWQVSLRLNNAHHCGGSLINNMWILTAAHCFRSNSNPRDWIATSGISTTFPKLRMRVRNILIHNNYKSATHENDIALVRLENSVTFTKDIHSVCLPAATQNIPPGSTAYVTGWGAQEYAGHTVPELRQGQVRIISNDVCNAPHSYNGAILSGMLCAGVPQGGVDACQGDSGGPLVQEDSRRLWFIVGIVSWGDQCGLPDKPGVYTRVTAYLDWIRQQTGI

TMPRSS-11F = TMPRSS-11F (human, UniProt Q6ZWK6); assay: ELISA, Strep-tagged protein on streptavidin plate
[5] = molecular target: T5, Human TMPRSS2 expressed on cells (human, UniProt O15393 1-492); assay: cell-based or functional assay
F321A = molecular target: T6, F321A (human, UniProt O15393); assay: flow cytometry, COS7 transfectant
T6 construct: expressed on COS7 cells with GFP via IRES; also called TMPRSS2 alanine substitution F321A; RQSFMA

[6] = molecular target: T5, Human TMPRSS2 expressed on cells; assay: flow cytometry, COS7 transfectant
[7] = molecular target: T5, Human TMPRSS2 expressed on cells; assay: cell-based or functional assay; remark: listed apart in the source
[8] = molecular target: T1, Mouse TMPRSS2 expressed on cells; assay: flow cytometry, Daudi transfectant; remark: listed apart in the source
[9] = molecular target: T5, Human TMPRSS2 expressed on cells; assay: flow cytometry, Daudi transfectant
[10] = molecular target: T7, Human TMPRSS2 recombinant protein, extracellular region (N-terminal His tag, C-terminal Strep-tag II) (human, UniProt O15393 106-492); assay: SPR (BIAcore); rounded repeat of Table 1
T7 construct: also called Human TMPRSS2 recombinant proteins; extracellular region of human TMPRSS2

[11] = molecular target: T7, Human TMPRSS2 recombinant protein, …; assay: SPR (BIAcore), captured mAb, soluble human TMPRSS2 extracellular region
[12] = molecular target: T1, Mouse TMPRSS2 expressed on cells; assay: flow cytometry, Daudi transfectant; remark: listed apart in the source
[13] = tested on: human TMPRSS family proteins; assay: Binding properties to TMPRSS family; conditions: FIG. 9
Procedure: The reactivity of anti-TMPRSS2 mAbs to extracellular regions of human TMPRSS family proteins was analyzed by ELISA method. To a streptavidin-coated 96-well plate (Thermo Scientific, 436014), 100 μl each of 78 nM Strep-tagged recombinant proteins in PBS was captured at room temperature for 2 hours and washed 5 times with PBST (0.1% Tween 20/PBS). Anti-TMPRSS2 mAbs (10 μg/mL), mouse IgG (Equitech-Bio, SLM66) or Ni-NTA-HRP (KPL, 24-01-01) as controls, diluted to 0.2% BSA in PBST was added thereto to incubate for 2 hours. After washing with PBST, the bound IgG was detected with 100 μl horseradish peroxidase Goat anti-mouse IgG antibody (BioLegend, Inc.) diluted to 1:15,000 in PBST at room temperature for 1 hour and washed with PBST. 100 μl TMB substrate solution (SeraCare Life Sciences, Inc. 5120-0077) was added to the well and allowed to color at room temperature for a few minutes. The reaction was stopped with 100 μl 2M H2SO4. The optical density (OD) was read at 450 nm while referring to OD with a microplate reader (ARVO ×3, PerkinElmer, Inc.).

[14] = molecular target: T8, amino acid sequence set forth in SEQ ID NO: 85 ([…]) (Homo sapiens, UniProt O15393); assay: Epitope mapping by peptide array; format: binding; conditions: 20-meric peptide array, FIGS. 5A to 5B
T8 construct: purchased JPT Peptide Technologies GmbH; host or cells: synthetic peptides on glass slide

mouse TMPRSS2 = molecular target: T9, mouse TMPRSS2 (Mus musculus, UniProt Q9JIQ8); assay: FACS cross-reactivity to mouse TMPRSS2; format: binding; conditions: FIGS. 10C and 10D
T9 construct: expressed in transfected cells; host or cells: Daudi

[15] = tested on: TMPRSS2 of non-human animal species; format: binding; conditions: Table 3; species whose TMPRSS2 is bound
human TMPRSS2 [16] = molecular target: T10, human TMPRSS2 (Homo sapiens, UniProt O15393); assay: BIACore binding assay of anti-TMPRSS2 antibodies; conditions: Table 1, mouse mAbs, 25° C.
Target sequence in this assay (O15393 106-492 limits assumed): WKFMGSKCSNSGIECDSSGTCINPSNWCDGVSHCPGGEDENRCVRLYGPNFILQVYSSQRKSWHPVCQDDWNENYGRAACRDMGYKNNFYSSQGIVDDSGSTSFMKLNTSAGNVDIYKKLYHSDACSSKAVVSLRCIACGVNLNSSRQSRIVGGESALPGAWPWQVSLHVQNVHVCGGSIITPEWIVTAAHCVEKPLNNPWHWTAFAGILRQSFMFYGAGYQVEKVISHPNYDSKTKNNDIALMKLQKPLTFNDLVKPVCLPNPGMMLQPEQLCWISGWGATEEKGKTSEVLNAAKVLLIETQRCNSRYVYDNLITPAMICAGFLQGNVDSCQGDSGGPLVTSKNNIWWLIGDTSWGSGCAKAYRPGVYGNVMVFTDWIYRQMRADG

human TMPRSS2 [17] = molecular target: T10, human TMPRSS2; assay: Competitive inhibition between anti-TMPRSS2 mAbs (flow cytometry); format: binding; conditions: FIG. 3B
Target sequence in this assay (O15393 whole entry): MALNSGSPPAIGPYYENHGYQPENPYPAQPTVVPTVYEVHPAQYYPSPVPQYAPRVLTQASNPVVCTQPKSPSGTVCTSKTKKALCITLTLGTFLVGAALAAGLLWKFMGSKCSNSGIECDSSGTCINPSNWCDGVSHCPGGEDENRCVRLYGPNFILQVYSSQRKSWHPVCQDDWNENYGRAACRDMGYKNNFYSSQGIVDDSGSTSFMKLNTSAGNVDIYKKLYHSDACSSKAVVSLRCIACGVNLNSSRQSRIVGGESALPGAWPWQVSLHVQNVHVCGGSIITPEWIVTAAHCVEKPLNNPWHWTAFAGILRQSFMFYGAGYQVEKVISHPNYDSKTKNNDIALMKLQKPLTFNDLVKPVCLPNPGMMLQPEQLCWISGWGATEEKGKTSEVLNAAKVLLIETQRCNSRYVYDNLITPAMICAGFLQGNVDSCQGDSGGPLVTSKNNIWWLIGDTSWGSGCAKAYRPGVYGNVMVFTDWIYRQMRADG

T5 sequence (O15393 whole entry): as above
T7 sequence (O15393 other isoform, or with tags, fused parts or gaps limits assumed): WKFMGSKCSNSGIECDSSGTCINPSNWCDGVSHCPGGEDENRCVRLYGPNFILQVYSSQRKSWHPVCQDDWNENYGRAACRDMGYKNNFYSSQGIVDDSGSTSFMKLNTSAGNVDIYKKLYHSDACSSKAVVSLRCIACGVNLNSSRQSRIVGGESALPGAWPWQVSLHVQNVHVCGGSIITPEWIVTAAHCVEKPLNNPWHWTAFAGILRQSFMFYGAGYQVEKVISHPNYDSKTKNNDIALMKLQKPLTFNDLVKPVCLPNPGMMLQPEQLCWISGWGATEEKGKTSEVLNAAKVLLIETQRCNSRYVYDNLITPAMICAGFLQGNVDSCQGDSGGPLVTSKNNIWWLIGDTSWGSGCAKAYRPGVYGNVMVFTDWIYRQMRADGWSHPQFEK
T1 sequence (Q9JIQ8 whole entry): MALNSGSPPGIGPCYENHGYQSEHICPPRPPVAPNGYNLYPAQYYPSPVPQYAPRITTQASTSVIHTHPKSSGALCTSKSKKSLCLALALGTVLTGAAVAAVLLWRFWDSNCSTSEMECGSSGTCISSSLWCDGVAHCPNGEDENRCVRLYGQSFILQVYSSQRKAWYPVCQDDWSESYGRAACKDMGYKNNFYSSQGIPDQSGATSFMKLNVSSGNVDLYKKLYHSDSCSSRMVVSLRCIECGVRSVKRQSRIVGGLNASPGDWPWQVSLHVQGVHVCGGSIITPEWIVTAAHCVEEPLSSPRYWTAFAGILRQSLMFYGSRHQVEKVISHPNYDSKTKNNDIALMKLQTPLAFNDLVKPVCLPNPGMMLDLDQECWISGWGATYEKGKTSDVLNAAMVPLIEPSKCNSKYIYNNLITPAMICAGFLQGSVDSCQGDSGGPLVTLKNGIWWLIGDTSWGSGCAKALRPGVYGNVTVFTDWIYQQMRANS
Human TMPRSS2 expressed on cells (human), sequence (O15393 whole entry): as the sequence (O15393 whole entry) above
T9 sequence (Q9JIQ8 whole entry): as the sequence (Q9JIQ8 whole entry) above
T6 sequence (O15393 whole entry F321A): as the sequence (O15393 whole entry) above, with F321A counted along it
TMPRSS-11F, sequence (Q6ZWK6 54-438 limits assumed): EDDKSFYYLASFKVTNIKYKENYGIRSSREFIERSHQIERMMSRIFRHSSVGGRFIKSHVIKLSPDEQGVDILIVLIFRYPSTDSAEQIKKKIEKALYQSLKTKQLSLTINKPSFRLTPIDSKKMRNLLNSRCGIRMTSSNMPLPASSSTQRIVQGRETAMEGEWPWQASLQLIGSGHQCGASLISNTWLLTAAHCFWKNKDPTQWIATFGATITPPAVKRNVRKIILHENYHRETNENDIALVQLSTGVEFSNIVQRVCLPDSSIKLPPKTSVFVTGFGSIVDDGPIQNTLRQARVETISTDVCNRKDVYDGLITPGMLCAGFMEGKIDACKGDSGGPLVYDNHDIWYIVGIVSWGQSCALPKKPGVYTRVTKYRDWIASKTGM

| Molecule | Q2 (percent of cells GFP+ and stained) [3] | IC90, First run; live SARS-CoV-2 infection of Calu-3 cells [5] [µg/mL] | IC90, Second run; live SARS-CoV-2 infection of Calu-3 cells [5] [µg/mL] | Activity: Calu-3 Inhibiton [7] | Kd [10] [nM] | Kd [11] [nM] | koff [11] [s⁻¹] | kon [11] [M⁻¹ s⁻¹] | binding result [12] | binding properties to the TMPRSS family [13] | binding to peptide of SEQ ID NO: 85 [14] | cross-reactivity to mouse TMPRSS2 (mouse TMPRSS2) | Cross-reactivity [15] | ka (human TMPRSS2 [16]) [M⁻¹ s⁻¹] | kd (human TMPRSS2 [16]) [s⁻¹] | competition with 2228_15 antibody for binding to human TMPRSS2 (human TMPRSS2 [17]) | other results |
| --- | --- | --- | --- | --- | --- | --- | --- | --- | --- | --- | --- | --- | --- | --- | --- | --- | --- |
| mIgG (antibody) | 1.51 |  |  |  |  |  |  |  |  |  |  |  |  |  |  |  | Q2 (percent of cells GFP+ and stained) [1]: 0.011; Q2 (percent of cells GFP+ and stained) [2]: 0.12; Q2 (percent of cells GFP+ and stained) [4]: 0.015 |
| B1 | 2.27 | 0.11 | 0.16 | 67.6 | 5.1 | 5.14 | 0.00289 | 563000 |  |  |  |  |  |  |  |  | binding result (TMPRSS-13): no binding (tested: 10 µg/mL); binding result (TMPRSS-11E): no binding (tested: 10 µg/mL); binding result (TMPRSS-11D): no binding (tested: 10 µg/mL); binding result (TMPRSS-11F): no binding (tested: 10 µg/mL); Q2 (percent of cells GFP+ and stained) (F321A): 7.85; Q2 (percent of cells GFP+ and stained) [6]: 10.5; Q2 (percent of cells GFP+ and stained) [8]: 98.1; Q2 (percent of cells GFP+ and stained) [9]: 100 |
| B2 |  | 1.5 | 3.4 | 47.6 | 1 | 1.04 | 0.000591 | 570000 | no binding (tested: 1 µg/mL) |  |  |  |  |  |  |  |  |
| B3 |  |  |  | 44.8 | 0.42 | 0.418 | 0.000236 | 563000 | no binding (tested: 1 µg/mL) |  |  |  |  |  |  |  |  |
| B4 |  |  |  |  |  |  |  |  |  | bound specifically only to TMPRSS2 | particularly bound | exhibited the cross-reactivity | Mouse | 654000 | 0.001759 | competed |  |
| B5 |  |  |  |  |  |  |  |  |  | bound specifically only to TMPRSS2 | particularly bound | exhibited the cross-reactivity | Mouse | 563000 | 0.002894 | competed |  |
